Data published in patent publication US20220195407, “OPTIMIZATION OF ENGINEERED MEGANUCLEASES FOR RECOGNITION SEQUENCES” (Precision BioSciences, Inc., published 2022).

How the values were obtained:
Experiment in all cases: cell_activity; CHO iGFFP reporter
[1] = molecular target: T1, LOX 3-4 m.140 (artificial (I-CreI derived))
T1 chain: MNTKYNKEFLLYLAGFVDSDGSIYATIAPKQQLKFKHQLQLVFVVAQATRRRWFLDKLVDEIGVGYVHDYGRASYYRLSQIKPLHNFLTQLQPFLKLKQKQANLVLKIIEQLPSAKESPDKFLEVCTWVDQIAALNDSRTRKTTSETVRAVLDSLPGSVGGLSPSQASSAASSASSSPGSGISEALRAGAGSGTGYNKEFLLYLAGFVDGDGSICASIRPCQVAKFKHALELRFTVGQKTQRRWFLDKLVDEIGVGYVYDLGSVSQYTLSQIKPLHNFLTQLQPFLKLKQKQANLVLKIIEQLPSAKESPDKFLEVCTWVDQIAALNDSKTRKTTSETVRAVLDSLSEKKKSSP
From the text: (§1) A CHO cell reporter system (see WO/2012/167192, FIG. 3) was used to determine whether the engineered meganucleases generated in these studies could recognize and cleave the modified LOX 3-4 recognition sequences in Table 87. To perform the assay, a pair of CHO cell reporter lines were produced, which carried a non-functional Green Fluorescent Protein (GFP) gene expression cassette integrated into the genome of the cell. The GFP gene in each cell line was interrupted by a pair of recognition sequences such that intracellular cleavage of either recognition sequence by a meganuclease would stimulate a homologous recombination event resulting in a functional GFP gene. In both cell lines, one of the recognition sequences was derived from the LOX 3-4 recognition sequence (i.e., those sequences disclosed in Table 87), and the second recognition sequence was specifically recognized by a control meganuclease called “CHO 23/24.” CHO reporter cells comprising a recognition sequence derived from the LOX 3-4 recognition sequence and the CHO 23/24 recognition sequence are referred to herein as “test cells.”
(§2) Novel engineered meganucleases derived from the LOX 3-4x.109 meganuclease were prepared by making amino acid substitutions at one or more positions in the first subunit. These engineered meganucleases were then evaluated for cleavage of the LOX 3-4 recognition sequence modified to have a GTAT center sequence (SEQ ID NO: 400) in the CHO reporter assay according to Example 1. Novel meganucleases which were modified to comprise the residues recited in the tables below were capable of cleaving the LOX 3-4 recognition sequence having a GTAT four base pair center sequence.

[2] = molecular target: T2, LOX 3-4 m.149 (artificial (I-CreI derived))
T2 chain: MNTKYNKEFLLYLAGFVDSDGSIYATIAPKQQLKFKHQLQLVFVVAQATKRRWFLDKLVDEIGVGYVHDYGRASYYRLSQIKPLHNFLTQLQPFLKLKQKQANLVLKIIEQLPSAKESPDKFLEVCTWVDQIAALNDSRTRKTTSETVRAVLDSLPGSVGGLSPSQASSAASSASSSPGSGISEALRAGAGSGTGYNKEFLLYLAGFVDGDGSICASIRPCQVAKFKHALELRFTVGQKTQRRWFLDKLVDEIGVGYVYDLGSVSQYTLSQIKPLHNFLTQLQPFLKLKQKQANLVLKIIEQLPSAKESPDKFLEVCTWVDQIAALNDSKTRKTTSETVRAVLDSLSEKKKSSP
From the text: as §1, §2

[3] = molecular target: T3, LOX 3-4 m.152 (artificial (I-CreI derived))
T3 chain: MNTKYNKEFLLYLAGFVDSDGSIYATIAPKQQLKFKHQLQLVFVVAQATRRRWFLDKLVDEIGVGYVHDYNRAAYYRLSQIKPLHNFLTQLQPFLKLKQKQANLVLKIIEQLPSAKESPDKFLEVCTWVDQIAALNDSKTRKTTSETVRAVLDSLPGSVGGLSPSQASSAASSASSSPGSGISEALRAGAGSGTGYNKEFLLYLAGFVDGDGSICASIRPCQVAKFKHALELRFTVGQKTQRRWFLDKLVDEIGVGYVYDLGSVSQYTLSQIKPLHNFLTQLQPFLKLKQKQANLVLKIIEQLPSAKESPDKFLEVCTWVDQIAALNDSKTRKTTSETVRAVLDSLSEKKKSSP
From the text: as §1, §2

[4] = molecular target: T4, LOX 3-4 m.108 (artificial (I-CreI derived))
T4 chain: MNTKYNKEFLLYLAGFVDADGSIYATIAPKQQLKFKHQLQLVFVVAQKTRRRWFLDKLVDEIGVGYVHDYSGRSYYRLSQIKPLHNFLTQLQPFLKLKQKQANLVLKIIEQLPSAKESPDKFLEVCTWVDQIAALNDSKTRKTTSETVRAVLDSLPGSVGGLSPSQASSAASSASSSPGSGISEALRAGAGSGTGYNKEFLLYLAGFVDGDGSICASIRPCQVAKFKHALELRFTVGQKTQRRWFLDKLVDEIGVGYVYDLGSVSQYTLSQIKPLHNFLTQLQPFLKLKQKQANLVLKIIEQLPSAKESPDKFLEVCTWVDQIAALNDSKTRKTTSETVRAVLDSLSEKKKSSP
From the text: as §1
as §2, with “GTAG” for “GTAT”, “390)” for “400)”

[5] = molecular target: T5, LOX 3-4 m.111 (artificial (I-CreI derived))
T5 chain: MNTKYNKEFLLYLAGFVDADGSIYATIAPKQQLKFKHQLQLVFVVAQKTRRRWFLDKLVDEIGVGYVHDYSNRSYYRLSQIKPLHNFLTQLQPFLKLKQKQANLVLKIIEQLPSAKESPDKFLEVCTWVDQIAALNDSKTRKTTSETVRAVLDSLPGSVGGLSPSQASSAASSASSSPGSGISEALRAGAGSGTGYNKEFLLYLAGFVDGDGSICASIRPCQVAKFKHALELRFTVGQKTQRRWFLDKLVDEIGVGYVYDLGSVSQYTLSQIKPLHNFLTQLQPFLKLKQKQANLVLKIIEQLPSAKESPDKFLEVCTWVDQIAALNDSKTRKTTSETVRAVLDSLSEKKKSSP
From the text: as §1
as §2, with “GTAG” for “GTAT”, “390)” for “400)”

[6] = molecular target: T6, LOX 3-4 m.97 (artificial (I-CreI derived))
T6 chain: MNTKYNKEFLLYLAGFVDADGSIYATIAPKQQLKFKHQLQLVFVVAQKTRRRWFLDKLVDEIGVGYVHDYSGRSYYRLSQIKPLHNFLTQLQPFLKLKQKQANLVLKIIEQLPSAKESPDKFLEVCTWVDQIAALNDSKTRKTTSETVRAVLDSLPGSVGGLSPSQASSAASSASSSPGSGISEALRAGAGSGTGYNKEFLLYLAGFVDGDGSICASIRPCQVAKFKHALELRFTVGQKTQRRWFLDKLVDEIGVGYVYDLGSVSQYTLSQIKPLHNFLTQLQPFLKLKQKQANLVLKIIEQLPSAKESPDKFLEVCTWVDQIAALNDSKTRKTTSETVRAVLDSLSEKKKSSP
From the text: as §1
as §2, with “GTAG” for “GTAT”, “390)” for “400)”

[7] = molecular target: T7, LOX 3-4 M.47 (artificial (I-CreI derived))
T7 chain: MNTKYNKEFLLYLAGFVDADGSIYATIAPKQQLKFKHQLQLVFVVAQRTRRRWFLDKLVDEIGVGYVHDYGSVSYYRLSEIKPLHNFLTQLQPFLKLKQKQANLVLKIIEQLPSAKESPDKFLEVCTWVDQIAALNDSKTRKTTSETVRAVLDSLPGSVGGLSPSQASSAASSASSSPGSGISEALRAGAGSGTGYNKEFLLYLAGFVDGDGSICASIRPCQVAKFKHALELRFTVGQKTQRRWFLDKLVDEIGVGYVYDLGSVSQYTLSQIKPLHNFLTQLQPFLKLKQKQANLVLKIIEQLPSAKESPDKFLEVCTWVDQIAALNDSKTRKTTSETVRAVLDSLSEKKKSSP
From the text: as §1
as §2, with “GTGA” for “GTAT”, “434)” for “400)”

[8] = molecular target: T8, LOX 3-4 M.39 (artificial (I-CreI derived))
T8 chain: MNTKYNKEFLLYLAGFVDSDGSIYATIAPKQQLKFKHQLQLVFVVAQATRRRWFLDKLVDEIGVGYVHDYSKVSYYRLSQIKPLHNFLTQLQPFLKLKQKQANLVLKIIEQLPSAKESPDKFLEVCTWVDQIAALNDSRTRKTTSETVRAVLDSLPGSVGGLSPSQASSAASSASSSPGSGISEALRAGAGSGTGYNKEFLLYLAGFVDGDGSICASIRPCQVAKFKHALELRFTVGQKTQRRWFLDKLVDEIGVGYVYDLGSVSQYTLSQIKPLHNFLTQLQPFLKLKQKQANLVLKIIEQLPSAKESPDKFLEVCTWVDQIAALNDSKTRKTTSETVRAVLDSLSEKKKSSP
From the text: as §1
as §2, with “GTGA” for “GTAT”, “434)” for “400)”

[9] = molecular target: T9, LOX 3-4 M.36 (artificial (I-CreI derived))
T9 chain: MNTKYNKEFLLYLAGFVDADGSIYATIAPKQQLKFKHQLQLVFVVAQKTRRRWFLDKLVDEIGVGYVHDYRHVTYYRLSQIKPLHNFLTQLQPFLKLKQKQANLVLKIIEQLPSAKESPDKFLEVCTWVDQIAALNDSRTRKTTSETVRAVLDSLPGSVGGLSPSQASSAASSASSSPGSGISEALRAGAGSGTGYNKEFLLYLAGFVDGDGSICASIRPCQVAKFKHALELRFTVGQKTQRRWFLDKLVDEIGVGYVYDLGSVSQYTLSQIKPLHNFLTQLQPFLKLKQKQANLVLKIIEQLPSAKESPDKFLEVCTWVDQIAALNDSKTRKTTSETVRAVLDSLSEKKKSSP
From the text: as §1
as §2, with “GTGA” for “GTAT”, “434)” for “400)”

B1: LOX 3-4 GTAT (dsDNA)
DNA 1: GTATAGCATGTATTATACGAAG
DNA 2: CTTCGTATAATACATGCTATAC
activity [1]: 13.1 % GFP | activity [2]: 12.9 % GFP | activity [3]: 4.43 % GFP

B2: LOX 3-4 GTAG (dsDNA)
DNA 1: GTATAGCATGTAGTATACGAAG
DNA 2: CTTCGTATACTACATGCTATAC
activity [4]: 19.7 % GFP | activity [5]: 17 % GFP | activity [6]: 17.2 % GFP

B3: LOX 3-4 GTGA (dsDNA)
DNA 1: GTATAGCATGTGATATACGAAG
DNA 2: CTTCGTATATCACATGCTATAC
activity [7]: 10.1 % GFP | activity [8]: 8.66 % GFP | activity [9]: 2.75 % GFP
